According to article PMC6458161 (2019):
One block for each molecule: values may come before it.

Legend:
[1] = test system: protamine (sulfate salt) (salmon); assay: ITC; settings: ITC in Hepes buffer, 25 C (salt and pH not given in the material), short duplexes 10 uM (strand concentration), protamine 100 uM
[2] = test system: GCDNA (DNA, duplex) GCGCGCGCGC; assay: ITC; settings: Hepes buffer, 25 °C; 200 µM Net titrated into 10 µM DNA (strand concentration)
[3] = test system: GCDNA (DNA, duplex) GCGCGCGCGC; assay: ITC, one set of sites fit; settings: Na+ 100 mM (from the 10 mM Hepes/100 mM NaCl UV and gel buffer; the ITC buffer is only given as Hepes buffer), 25 °C, 500 µM EtBr titrated into 10 µM DNA (strand concentration)
[4] = test system: ATDNA (DNA, duplex) GCAAATTTGC; assay: ITC, one set of sites fit; settings: Na+ 100 mM (from the 10 mM Hepes/100 mM NaCl UV and gel buffer; the ITC buffer is only given as Hepes buffer), 25 °C, 200 µM EtBr titrated into 10 µM DNA (strand concentration)
[5] = 20 uM ethidium bromide (EtBr-bound DNA)

Molecule: GCGCGCGCGC (double strand) [GCDNA]
Ka [1, 5]: 4.5e+06 M⁻¹
Ka ([1]; 20 uM netropsin): 4.5e+07 M⁻¹
Ka ([1]; no drug): 3.4e+07 M⁻¹

Molecule: GCAAATTTGC (double strand) [ATDNA]
Ka [1, 5]: 3.9e+06 M⁻¹
Ka ([1]; 20 uM netropsin (Net-bound DNA)): 1.89e+08 M⁻¹
Ka ([1]; no drug): 1.4e+08 M⁻¹

binding [2]: no
Molecule: Cn1cc(NC(=O)c2cc(NC(=O)CN=C(N)N)cn2C)cc1C(=O)NCCC(=N)N

Molecule: CTDNA (calf thymus DNA)
Ka ([1]; 60 uM ethidium bromide (EtBr-bound DNA)): 6.36e+07 M⁻¹
Ka ([1]; 60 uM netropsin (Net-bound DNA)): 5.54e+07 M⁻¹
Ka ([1]; no drug, CTDNA titrated into protamine): 550000 M⁻¹

KA [3]: 145000 M⁻¹
KA [4]: 165000 M⁻¹
Molecule: CC[n+]1c(-c2ccccc2)c2cc(N)ccc2c2ccc(N)cc21
